Three substances from US5434073 can be followed below.

Experiment [1] concerns the target human thrombin (Sigma) (human) (UniProt P00734).
In experiment [2] the target is plasminogen (Sigma P-7397).

The substance hirudin-IEGR-hirudin fusion protein showed a specific activity in anti-thrombin units (inhibition of thrombin catalysed hydrolysis of CHROMOZYM TH) in experiment [1] of 588 U/mg.

In experiment [1], recombinant hirudin sample yielded a specific activity in anti-thrombin units (inhibition of thrombin catalysed hydrolysis of CHROMOZYM TH) of 6600 U/mg.

In experiment [2], “thrombin cleavable streptokinase-streptokinase fusion protein” returned a streptokinase activity by the S2251 chromogenic assay of 18400 u/ml.
